Data on 50 sequences can be found in the domain aggregation screens of Martell et al. (2025).

The data set can be described thus: soluble fraction after stress (log2 fold change); higher = more stays soluble; pooled small domains, quantitative proteomics. Particulars: stress: pH 4. The essentials:
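Pooled custom libraries of small protein domains were subjected to pH 4 and measured by high-throughput quantitative proteomics. The log2 fold change in soluble amount per domain is reported, higher values meaning more remained soluble. This is used as a measure of aggregation propensity.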

With “HMGPLDIAQLKSDFLGGDAQLARRAWDQLATKAGDEGRDFLISSLGSSDPQIRNRVALGIHES”, the “soluble fraction (log2)” value was -0.152. Then “HMGPLTMGQRIVRLRTQAGLSQDALAEQLGVSRQSVSKWETDGSVPDLDRLVKLSKVFGVTLDELVKG”, with no less than 0.43; and “HMGPPAVGAKLQVLRQARKLSLDELSRRAGVSKSMLSQVERNLANPTVAVLWRLATALGVGLADFLSP”, with -0.524; and “HMGPRVSAGPGRHRVQPGDTLDDIAARYRVSSRDLMLVNGLRNANHVEAGQTLKLPSNAVIA”, with no less than 0.43. Then “HMGPSLIRIASNPVAEVFIDGTRVGTTPFEMPADGTLKTVRLTAKDHDDLVVPLRSMKSMEIMLTLRRI”, with -0.136; and “HMGPTLTDEEEVVLNLLEKNHPVLLSELKENAGLSNKKWDKAIKGLSAHKLAKVTKTDDGLFVHLS”, with -0.167. In the case of “HMGPTPTSAQLTEAKRLRTKLDDLNPELAERLWSEHREPYTETQYQTLIEKLAAEVQSAEGEIGR”, the “soluble fraction (log2)” value is 0.351.

For the sequence “HMGPVRRDLEINGRMVPLTIREHARATRITLRIEPGGQALRLTIPPGLPTREVDSFLTRHHGWLMTKLAHI”, the “soluble fraction (log2)” value is 0.0131. Then “HMGPWTETAAKGDAVSKRMLITWLQENADAEFLAAQKLTGQATSVAKRVTKDQLVELYLSVTTAA”, with -0.149. Then “HMGQAAHYEGVKGDGESDTDVISRVLTAAGAEAQKDDIFVVKELIAGGKYSYTAYVYDGSVWAAM”, with -0.502; and “HMGQAEEVRYSTFLDEVRNGRIEQVVLQGEHIIGTRKDKTVFSVFNPETDYTALIGTLSKSGVTIEGRP”, with 0.103. Then “HMGQARQSAIRELGNDPTSGKKITVRSGRYGPYVTDGEVNASLRKGDDPQTIDLDRAIELLAARREKLG”, with -0.324; and “HMGQDGFIGLEAAKKLVLQKLGLTSAEFIKAELDAEDRKYELELIVDGIEYDFDIDAYSGAFLKQEQETV”, with 0.122. As to “HMGQEEKDIFLKLINISGIGPKLALNILSGIEASELEEAVRNTNVTRLSMVPGIGQKTALRIIMELSDKLE”, the “soluble fraction (log2)” value was -0.881.

As to “HMGQELTMPDLKSMSRSNAEEKLKKMGLKLGAVFEENAKEPAGTVINQDPRSGSKITKGQTVDITVSLGEK”, the “soluble fraction (log2)” value turned out to be 0.0104. Then “HMGQERAVPDVKGQSFDMAQGNISRAGLKAVVTDSVYDSYARPGTVVEQSPIPLAKIKRGGTVYLTLVA”, with -0.0752; and “HMGQGSAFVYYEVLPKQTEYSLTRKLGLGYADLLSLNPQLARGLQAGMVLKIPRDKAGNLEVKNDLILE”, with 0.165; and “HMGQISLSVNAIPEKAEVILDGNSIGNTPIRKNTITPGSHMFEIEKKGYAPISYDIYVNPSKAINLDFFM”, with -0.153. Then “HMGQKDYKTRLQEYFAKQGLKVNYEDTSHGPDHNKNFSTDVFLDGKIIGSGIGKSKKSSQQSAAKDALNIL”, with no less than 0.43; and “HMGQLIGKEEAKQIALSRAGVAEGDISRYESELDTDDGKTKYEISFHVGRVEYDIEINAVTGAVEKFEMDN”, with 0.0113. Then “HMGQTDTIIKTTTDLYYEMSTMSDDDKLVVAQTLRDVWMAVGRWSGKLSKKQREKVAEVKRVLGE”, with -0.5; and “HMGQVAKPPLKELGADPVTGKPMVLKDGRFGPYVTDGEYNASLRKDDDIETIGVERAAELLQIRREKGP”, with -0.0291; and “HMGQVGIPFSDFLAEVENGQVREVVIKGNDISGTFNDNRGFSTYAPNDPNLVEKLTKRGVVINAQPTE”, with 0.123. “HMGQVSEAGELEVAADRVIAANPEAVTKYKSGNENILQFLVGQMMKETKGAANPQVAAEILRKKIV”: the “soluble fraction (log2)” value worked out at 0.0296.

Take “HMGRELDLNQRVYDFIHDIADEVRTDEGTFSANQMMERFLFPGDLQSVPIGRLSGGERRRLYLLSVLMVKI”: the “soluble fraction (log2)” value is -1.15.

For the sequence “HMGRFPSLTPVVIDALTAQYREHPGWTVQLHVDNLRVVLAANQTPLPSYPTIRRYLLAQGMRRQTRP”, the “soluble fraction (log2)” value is -0.176. Take “HMGRLNMRRIRDVLRLKFGQGLSERQVAASLGLSKTSVGTYLHRARQAGLTWPLPQGLDDDGLELLLFP”: the “soluble fraction (log2)” value was found to be 0.0376.

As to “HMGRMTRKDRALATDLYGRIVGNVDDFHEGRIDYETFSERQRGLWTTLDAAGPEVKRAVLADIRERL”, the “soluble fraction (log2)” value came to 0.23.

For “HMGRWQPSTSAKQHGESALLLERLLHLERLTVSEAFHVLTINHRLNLSLPEYRSLLAVVQLPK”, the “soluble fraction (log2)” value was -1.31. Then “HMGRYDWIEQIDDPVLAERLKHLTEDDLELLTRYVFEDATQKELASQYGIGQQSVSKRLKKLKSFLTK”, with -0.683. Then “HMGSATAPDLKGLTYEQAQTKAEDAGYNIEKGEDVYDNDVEKGKVASQDPEAGAEAKEGSVITVNISK”, with 0.168. For “HMGSFAADVGRMVRLGRAKRGISRRKLAADSGISERYLAQIEGGQGNPSVNVLKAIADAISVPVFELLPH”, the “soluble fraction (log2)” value is -0.197. In the case of “HMGSFDDAPDQLRQSILQLLAEGPLPPSAITERLNISREDATEALQQLLDEQRIFAVNGMLQLQPG”, the “soluble fraction (log2)” value was -0.538. Then “HMGSFTDKQIKQAFGVLNDPRFKQGNYDGAVAVINKIAPGLADHPSVANALKRANEATQDIAQQTQA”, with 0.161.

As for “HMGSGQIRYITENTVRVVYGTSKENEFVFQDGKPYPKDTPYHIHYTRNLEEYFMSGVEHDKNSKIILKVD”, the “soluble fraction (log2)” value is -0.792. For the sequence “HMGSGVNVTVNGKRMNLPLKDDHIIFVDIFNYIDFDLSKPKGSIVLKLNGRDAGYTDPIKDGDVIDIYWQ”, the “soluble fraction (log2)” value was -0.686.

“HMGSIDYLVGSRLRQYRRLRGYSLIEFSAMLHRSKSAISKYERGEVSIDLRTLNEMARLLDIPLSGLLL”: the “soluble fraction (log2)” value was -0.283.

In the case of “HMGSIEASFEEDVRRYLARKSMTTTEISKKMRQKRPDMSRDQLMTLLANAIKRIKPIKKKIKGTLYLSLE”, the “soluble fraction (log2)” value stood at 0.259. Then “HMGSIMIIVLKENAPQQAAEKLMKEIRAKGLQIDVSKGTRKTVLGLVGDTSVIDMEHVQGYDYVDKVLRV”, with -0.674; and “HMGSKDLPFSTFMSEIDKGNITSVDIRGNEIQGTFANGTKFRTYSPNYPNLVEKLNGKGVSITAGPV”, with 0.211. Then “HMGSKKITIYVSGEVKNPGIVTLNSDQRLASAVEKLGGVTENADMNNINLAMKLEDEMHYIIPKKGEK”, with 0.149; and “HMGSKQVSVPDVRNLDYERASQQLREAGFVVGDVLRIRDDRAPAGTVIAQSPAAPALVPENARVSLLVSSG”, with 0.00984. Then “HMGSLAVVPSLTGKTLQEAQSKAADYGLALEIEGYVASTAVDYGRIVSQSPDAGFSVKSGSSVKVSVSAG”, with no less than 0.43; and “HMGSLGRAIRSRREKMKVGLEELAAKTGLSESHISDIEEGRGFAPVGDILKIARALTIDPGELLK”, with 0.426; and “HMGSLGSLLKSVRNQRGLSRQQMAQSLNIGVRAIEQIEEGERKPDLELLNRYARGLMDPSVT”, with -0.138.

“HMGSLKEKIVLLEKLYQQNPSEEIKLLLINTYQLNHQYIQARKLFFTLTPEQKEKLPLASEFLIFL”: the “soluble fraction (log2)” value was -0.725. As for “HMGSLNDQVMKYIDALPSAFNKRELDFLIERGVKEFALNGEYLEKAIINEYKLTADTYHRER”, the “soluble fraction (log2)” value is 0.129. On to “HMGSLQPLLLAAIDALQTHIRSGLPFRVEERLAELDQFRTELQNGSVPPQRGVNRLWAFYEDEFRL”, for which the “soluble fraction (log2)” value is -0.386. On to “HMGSLRSALDGIPGIGEQYQKRLLAQFGSVKAMRSASVEDFEAVRGIGRAKAQALYDALHAG”, for which the “soluble fraction (log2)” value turned out to be 0.13. As for “HMGSLVVVPNLVGQNYDEVKLSTKYSDFEIVQKNTEYSEAPAGQIIKQDPEAGTKVKKHSTINVTVSK”, the “soluble fraction (log2)” value was -0.287.
